# Experimental data taken from US20040101829A1, “Protein that interacts with lipids and methods for treating hyperlipidemia” (The University of Iowa Research Foundation, priority 2002, published 2004).
# B1: HCV E2: Purified recombinant HCV envelope glycoprotein E2 (Ala 384-Lys 715) expressed in CHO cells, obtained from Austral Biologicals (protein)
# chain: ETHVTGGSAGHTVSGFVSLLAPGAKQNVQLINTNGSWHLNSTALNCNDSLNTGWLAGLFYHHKFNSSGCPERLASCRPLTDFDQGWGPISYANGSGPDQRPYCWHYPPKPCGIVPAKSVCGPVYCFTPSPVVVGTTDRSGAPTYSWGENDTDVFVLNNTRPPLGNWFGCTWMNSTGFTKVCGAPPCVIGGAGNNTLHCPTDCFRKHPDATYSRCGSGPWITPRCLVDYPYRLWHYPCTINYTIFKIRMYVGGVEHRLEAACNWTRGERCDLEDRDRSELSPLLLTTTQWQVLPCSFTTLPALSTGLIHLHQNIVDVQYLYGVGSSIASWAIK
# What was measured:
# Huh-7 cells = experiment: Cell binding assay by flow cytometry, Huh-7 cells; format: cell-based, human; details: 4° C.
# Description: FIG. 3A; FIG. 3B; and FIG. 3C: Incubation of LDL enhanced binding of HCV E2. […] Cell-bound E2 was detected using a monoclonal antiE2 antibody (FIG. 3A and FIG. 3C) or a polyclonal anti-E2 serum (FIG. 3B).
# (§1) MOLT-4 cells, a CD4^+ T lymphoblastoid cell line, and Huh7 cells of hepatocyte origin were obtained from ATCC (Manassas, Va.). Human foreskin fibroblasts (FSF) and LDLr-deficient foreskin fibroblasts (Null) from a patient with familial hypercholesterolemia (Hobbs et al., 1987) were kindly provided by Dr. Jheem Medh.
# (§2) Recombinant HCV E2 protein or HIV-gp120-FITC, human, rabbit or bovine lipoproteins, HCV or mock virus preparations were added to cells for 60 min at 4° C. Cells were washed and incubated with ligand-specific antibody for 60 min at 4° C. Antibody binding was detected using goat anti-human IgG-Oregon green (10 μg/ml) for 45 min at 4° C. Cells were washed two times, fixed in PBS containing 4% paraformaldehyde, and analyzed by flow cytometry (FACScan, Becton Dickinson).
# [1] = tested on: 3T3 cells expressing human CD81; experiment: Cell binding assay by flow cytometry, mouse 3T3 cells with or without human CD81; format: cell-based
# Description: FIG. 4B: Binding of recombinant HCV E2 to mouse 3T3 cells. Cells were detached non-enzymatically and incubated with recombinant E2 protein. Cell-bound E2 was detected with monoclonal anti-E2 antibody 108, followed by incubation with a secondary fluorescent labeled anti-human IgG. Cells were analyzed by flow cytometry.
# FIG. 4C: Binding of HCV E2 and HCV-E2/LDL to mouse 3T3-human CD81 cells. Cells were detached non-enzymatically and incubated with E2 alone or E2/LDL. Cell-bound E2 was detected with monoclonal anti-E2 antibody 108, followed by incubation with a secondary fluorescent labeled anti-human IgG. Cells were analyzed by flow cytometry.
# as §2
# The increased level of binding of both proteins to MOLT-4 cells may be due to an association between LDL and HCV E2 that enables the resulting complex to bind to either the LDLr or to CD81. […]
# MOLT-4 cells = experiment: Cell binding assay by flow cytometry, MOLT-4 cells; format: cell-based, human
# Description: as §1, §2
# HCV-E2 was incubated with increasing concentrations of human LDL for one hour at 4° C. prior to the addition of proteins to MOLT-4 cells. Following one hour at 4° C., cells were washed and HCV E2 binding was detected by flow cytometry. […] The increase in E2 binding in the presence of LDL was seen when either the anti-HCV McAb or anti-HCV polyclonal anti-HCV were used for E2 detection (FIG. 3B). […] To determine if HCV E2 influenced binding of human LDL to MOLT-4 cells, HCV-E2 and fluorescently labeled LDL were incubated for one hour at 4° C. and added to MOLT-4 cells for an additional hour. Cells were washed and analyzed for labeled-LDL binding (FIG. 3E and FIG. 3F).
# [2] = tested on: normal human foreskin fibroblasts (FSF); experiment: Cell binding assay by flow cytometry, human foreskin fibroblasts (FSF); format: cell-based
# Description: (§3) FIG. 4D: Binding of recombinant HCV E2 and E2-LDL to human fibroblasts (FSF) and human fibroblasts negative for the human LDLr (Null). Cells were detached non-enzymatically and incubated with E2 or E2/LDL proteins. Cell-bound E2 was detected with monoclonal anti-E2 antibody 108, followed by incubation with a secondary fluorescent labeled anti-human IgG. Cells were analyzed by flow cytometry.
# as §2
# (§4) The increased level of binding of both proteins to MOLT-4 cells may be due to an association between LDL and HCV E2 that enables the resulting complex to bind to either the LDLr or to CD81. To evaluate this interaction further, mouse 3T3 cells expressing only murine CD81 or cells expressing both murine and human CD81 were studied. […] Therefore, the enhanced E2 binding following incubation with LDL appears to require human LDLr expression on the cell surface. […]
# [3] = tested on: human fibroblasts that do not express the human LDLr (Null); experiment: Cell binding assay by flow cytometry, LDLr-deficient fibroblasts (Null); format: cell-based
# Description: as §3, §2, §4
# human LDL = experiment: ELISA for E2-LDL interaction (anti-LDL McAb capture, anti-E2 McAb detection); format: binding
# Description: FIG. 2: Interaction of E2 with LDL. Increasing amounts of LDL were incubated with purified E2 protein at 4° C. and allowed to bind to mouse monoclonal anti-apolipoprotein B antibody coated in ELISA plates. LDL bound E2 protein was detected with a monoclonal anti-E2 antibody, followed by an alkaline-phosphatase labeled secondary antibody and PNPP substrate. The subtracted blank consisted of E2 protein in the absence of LDL.
# Microtiter plates were prepared by coating wells with 100 μl anti-LDL McAb (4 μg/ml in 100 mM bicarbonate buffer, pH 9.6) overnight (ON) at RT (Wuenschmann et al., 2000). […] Plates were washed twice with TBS followed by the addition of 100 μl of E2 protein or E2 protein with LDL in PBS. After ON incubation of samples at RT, plates were washed three times with TBS followed by the addition of anti HCV E2 McAb 108 (7.5 μg/ml). Plates were incubated for 1.5 h and washed three times with TBS; then 100 μl of anti-human IgG-alkaline phosphatase conjugate (Promega, Madison, Wis.) diluted 1/5,000 in BLOTTO was added for 1 h at RT washed four times with TBS, and incubated for 30 min with a 1-mg/ml solution of p-nitrophenyl phosphate (PNPP). Absorbance was measured at 405 nm with a multiwell plate reader. […]
molecule,measurement,setting,value
B1,Binding of E2 protein to Huh-7 cells after preincubation with human LDL,Huh-7 cells,increased binding of E2 protein
same,E2 binding to 3T3 cells,[1]; 3T3 cells expressing human CD81 vs control 3T3 cells,bound only to 3T3 cells expressing human CD81
same,Amount of cell bound HCV E2 on 3T3-human CD81 cells after preincubation with LDL,[1]; preincubation with LDL,did not increase the amount of cell bound HCV E2
same,E2 binding to MOLT-4 cells,"MOLT-4 cells; E2 alone, 4° C.",bound to MOLT-4 cells
same,Amount of labeled LDL bound to MOLT-4 cells after preincubation of LDL with HCV-E2,"MOLT-4 cells; LDL up to concentrations of 2.5 μg/ml, 4° C.",the amount of LDL bound increased
same,LDL concentration at which the increase in E2 binding was saturable,"MOLT-4 cells; MOLT-4 cells, 4° C.",> 2.5 µg/mL
same,HCV E2 binding to MOLT-4 cells stripped of lipoproteins by dextran sulfate,MOLT-4 cells; cell bound bovine lipoproteins removed with dextran sulfate,decreased
same,Amount of E2 bound to MOLT-4 cells after incubation with lipoproteins,"MOLT-4 cells; human VLDL, LDL and HDL, bovine lipoproteins",increased
same,Amount of cell-bound E2 on MOLT-4 cells after preincubation with apoprotein B,MOLT-4 cells; preincubation with apoprotein B (apoB100),did not increase the amount of cell-bound E2
same,Amount of E2 protein bound to MOLT-4 cells after addition of LDL,MOLT-4 cells; preincubation with human LDL one hour at 4° C.,increased the amount of E2 protein bound
same,E2 binding to FSF fibroblasts,[2]; E2 alone,bound
same,E2 binding to LDLr-expressing fibroblasts when preincubated with LDL,[2]; preincubation with LDL,increased binding
same,E2 binding to Null fibroblasts,[3]; E2 alone,bound
same,Binding of E2-LDL complexes to Null cells compared with E2 alone,[3]; preincubation with LDL,equally to E2 alone
same,HCV E2 detected in ELISA with murine McAb against human LDL as capture antibody,human LDL; E2 alone vs E2 with LDL,only detected when complexed with LDL
same,Extent of E2 captured in relation to LDL concentration,human LDL; increasing amounts of LDL,directly correlated to the LDL concentration used
